The nature of this series: soluble on expression in E. coli; label from the status in PepcDB or PDB records.
In the case of “SGNRGVVYLGSGKVEVQKIDYPKMQDPRGKKIEHGVILKVVSTNICGSDQHMVRGRTTAQVGLVLGHEITGEVIEKGRDVENLQIGDLVSVPFNVACGRCRSCKEMHTGVCLTVNPARAGGAYGYVDMGDWTGGQAEYVLVPYADFNLLKLPDRDKAMEKIRDLTCLSDILPTGYHGAVTAGVGPGSTVYVAGAGPVGLAAAASARLLGAAVVIVGDLNPARLAHAKAQGFEIADLSLDTPLHEQIAALLGEPEVDCAVDAVGFEARGHGHEGAKHEAPATVLNSLMQVTRVAGKIGIPGLYVTEDPGAVDAAAKIGSLSIRFGLGWAKSHSFHTGQTPVMKYNRALMQAIMWDRINIAEVVGVQVISLDDAPRGYGEFDAGVPKKFVIDPHKTFSAA”, the “soluble on expression in E. coli” value is on record as “soluble”. For the sequence “MEFTLTREKQMIKEMVRDFAEKEIAPKAVYYDKTAEFPYETFQKMGELGLLGIPFPEEYGGSGGDTVSYALAVEEIGRACGGTGLSYAATISLGASPIYYFGTEEQKQKYLVPMASGKTLGAFGLTEPNAGSDAGGTQTKAILDGDEYVISGEKCWITNAEYANTIIVTAVNGIEENGRKRISAFIVPTTSEGLTISSPYDKMGVRASNTCEIVLDGVRVPKENILGDVNKGFKQFLYTLDGGRISIAVLAVGIAQSAFERALQYAKERQQFGKAISNFQAIQFKLADMATEVELARNLVHKAAWLKDNDKPFGKEAAMAKLFASEAASRIANQAVQIHGGYGYMREYEVERHIRDAKLLEIGEGTSEIQRLVIARHLGCR”, the “soluble on expression in E. coli” value was “not soluble”. For “MLVTGLEILRKARAEGYGVGAFNTNNMEFTQAILEAAEEMKSPVILALSEGAMKYGGRALTRMVVALAQEARVPVAVHLDHGSSYESVLKALREGFTSVMIDKSHEDFETNVRETKRVVEAAHAVGVTVEAELGRLAGIEEHVAVDEKDALLTNPEEARIFMERTGADYLAVAIGTSHGAYKGKGRPFIDHPRLARIAELVPAPLVLHGASAVPQELVERFRAAGGEIGEASGIHPEDIKKAISLGIAKINTDTDLRLAFTALVRETLGKNPKEFDPRKYLGPAREAVKEVVKSRMELFGSVGRA” the value was “soluble”; for “MSRLSSLLILVCIGALLVETFAAPDEPIIVRSKRQQCRCVKNPNGGLTCSCAKGPADGSSSSIGSGVQYDAPQSADIANQLTAMSQQTTGMSGARCGCIQIVIQGAPQYNCQCGDQSGNPLPTTTTMAPTTSSTTTTTTTTTQAPTTTSTTTTQSPVSYPQVPTQTQGSNGACNCIMISITSPQTAQYQCQCAQPQQQQQQQVQYDTYEYAPVQTTPTPMPTTQVPTTQAPTTQAPTMPTSSSPVQYADTAATQYPLTTTCVMYVNVPTTACSCLPQYDQCAQNVCCLKSKFRSYKKAEETQPSTLDVLMNVLQTIKTKLE”, “not soluble”; for “AHHHHHHGSFPHEEKLIREKLGREPNDLEKAMLEVMWSEHVSYKSSRKWLKLLPTKNEHVILGPGEDAGIIKFDDKTWIVIGIESHNHPSAVEPYGGAATGVGGIVRDILCMGARPIALLDPIRFGPLEKEKNRYLFEYVVKGIADYGNRIGVPTVGGETEFDESLDNYTLVNVACIGIMRPEHLVHSYVTEPGLKLVIVGNRTGRDGIHGVTFASEELGENAEEEDRSAVQIPDPFTEKLLIEATLEAVYTGKVKALKDLGGGGLTCAASEMVGKRGFGAIIYADKVPLREPGMTPLEVMISESQERMLFAIKPEDVEELGKIFEKYELEWSVVGEVIEEPKFIVYWKGRKVAELPIELLTNVPTIEWPMKEYRIEEDVETPQISLEEAFEKVWRSPNVISKRWVWEQYDHEVQGRTVIKPGFDSAVLKINEEYGLAITADGNPTHCYLNPYHGAMGVVVEVVRNLVSVGAKPLALVDNLNFASPERPEVYWSFVETIKGLADAAKAFGLAYVSGNVSFYNEVVNKPVKPTPVVAGVGKVKLEKIPRGPREGDLIGLIGETRKELGGSELYRVLGVSKGIAPRVDLEVEKRNAESVLKLIEEGLVSFVHDVSRGGVAVALAELSTWFNVGIKSEITTSLLPLDFAFSESHGRYIVTFPEENLEAVKKIAPITLLGRIGGEKFELKINGEKVSKTVKWLSDVHWNELYRIMD”, “not soluble”.

As to “MLFGQSVFQSVVERLKQEKEEEGTEPSPPAGHRIAGFSSGFVVDTHIEAPQPANGNLDAYLAFLADPAPPPESQTEPEPEPMPAHLEKTALADVSAELAIQETDTVATLAEKRRAFARLNHPDRVKPQFRHNATLRMTAANLLIDQALRMLRTREHFR”, the “soluble on expression in E. coli” value is listed as “not soluble”. The same measure for “GPGSMSSSNAQAELGPGGSTHSIELGRLIFQGAESKVYCCSFYGALALCKHRFVKRYRDPSLDERLRTQRTRREARALERCVKKGIRAPRLLGADYINTFLVMSYEAGPTVKEALDIEHAAYMQQVSKGKSTSAQQQQPQTTPSPSALGNAAPSPVTAALLQSIGVVVARLHNANIVHGDLTTSNFICTCDGLEAAAPGADGADALASSSPVLPTAEDIVVLDFGLISEKYSTEERAVDLYVLERAIASTHPYLSSFASDIILEGYRSAADPKKGEEALRRLEAVRARGRKRTMIG”: “not soluble”; for “GIDPFTRDGPLVLIGSGLSSEQQKMLSELAVILKAKKYTEFDSTVTHVVVPGDAVQSTLKCMLGILNGCWILKFEWVKACLRRKVCEQEEKYEIPEGPRRSRLNREQLLPKLFDGCYFYLWGTFKHHPKDNLIKLVTAGGGQILSRKPKPDSDVTQTINTVAYHARPDSDQRFCTQYIIYEDLCNYHPERVRQGKVWKAPSSWFIDCVMSFELLPLDS”: “soluble”; for “GPLGSMSAAIAKPSAKPSAHVDPKSAPLKEIPDVLVDPRTMKRYMRGRFLGKGGFAKCYEITDMDTKEVFAGKVVPKSMLLKPHQKEKMSTEIAIHKSLDNPHVVGFHGFFEDDDFVYVVLEICRRRSLLELHKRRKAVTEPEARYFMRQTIQGVQYLHNNRVIHRDLKLGNLFLNDDMDVKIGDFGLATKIEFDGERKKTLCGTPNYIAPEVLCKKGHSFEVDIWSLGCILYTLLVGKPPFETSCLKETYIRIKKNEYSVPRHINPVASALIRRMLHADPTLRPSVAELLTDEFFTSGYAPMRLPTSCLTVPPRFS”: “soluble”. For “MAHHHHHHMQLLHAQQEGMKNIRQSEASHSDENDKKERGTRSGSTTGTCSEFDVCAVYDDDDVPLAAQFVRSCPPLTDPSWAMEELLRINSHVAVWTGSALPNSVWALPGSGHCPFGSTDADFARIR” the value was “not soluble”; for “MQDGESNFPLLLLPENAKKHVLRTMDVDFLLSLSFCSKRTKHIVQSLKLKFEHFKMDLLGKTKLMINFRSTTILLVFNALYGDKAWKDVFRTVVSTGPPNARYYNTNFFKSFGWERKELAVEDTIYHIFDILNTNVIDVFLDCNNRNMFFFEKLSQTFRERNVRRISLGSMQNPIFNSFSYLENSLRNQFLELEGLAYLRELYRTLQEEHKILIQNFNYLNPNLPSTGKMTLNELLLINSSHITLTFNEMALNEKSLNIFLKHWINGSNKKLDYMYLSGFTQLGETSVAIEAILKRIVHKEASHDRLFKKFYDPGSNGNIGDNSSSLKHGFDIISNDGTPATASIRISEGVIYFQMKVWDQ”, “not soluble”; for “SGSSTGDLVTRIQSAHRFDHDALFRFAADNVSGFPTNPSQFKVSQFGHGQSNPTFLIEVGSGSSLKRYVLRKKPPGKLLQSAHAVDREFQVLRALGEHTQVPVPKVFCLCTDPAVIGTAFYIMEFMEGRIFIDPKLPNVAPERRNAIYRATAKALASLHSADVDAIGLEKYGRRGNYCKRQIDRWFKQYLASTSEGKPERNPKMFELVDWLRKNIPAEDSTGATSGLVHGDFRIDNLVFHPSEDRVIGIIDWELSTLGNQMCDVAYSCMHYIVNVQLDKEHVSEGFETTGLPEGMLSMPEFLLEYCSASGKPWPAANWKFYVAFSLFRAASIYTGVYSRWLMGNASAGERARNTGVQANELVESALGYIARENVLPEHPPSVQRDVSPSYESLVDGSGRFIPNRKVLELRQKLIKFMETHIYPMENEFSKLAQSDMRWTVHPQEEKLKEMAKREGLWNLFVPVDSAARARRELAATENKHNLSGKSFDQLFGEGLTNLEYGYLCEIMGRSVWAPQVFNCGAPDTGNMEVILRYGNKEQISEWLIPLLEGRIRSGFAMTEPQVASSDATNIECSIRRQGDSYVINGTKWWTSGAMDPRCRVLILMGKTDFNAPKHKQQSMILVDMRTPGISVKRPLTVFGFDDAPHGHAEISFENVVVPAKNILLGEGRGFEIAQGRLGPGRLHHCMRLIGAAERGMELMAQRALSRKTFGKFIAQHGSFVSDLAKLRVELEGTRLLVLEAADHLDKFGNKKARGILAMAKVAAPNMALKVLDTAIQVHGAAGVSSDTVLAHLWATARTLRIADGPDEVHLGTIGKLELQRASKL”, “soluble”. As to “MAHHHHHHMLTSTAYGMELQARAIAPFYHSSNNSSSTHRFVAGTACFAGGNVIRLLTFQEESQLLECTATWSHEEEIFGLWSSPSVAGPSLLAVGASSYCRIFRVSDDVSGELEPVVNFNAAAAQVLWDLEGLQNEVKLISEDSLRIYSLTEGKMGEEIGRFRVDGCAELRCAALDPHHSSVCLAAGEGIGIAVIDTRRKGPIVMPNTTTLHGLGMIQSIDFSNAREGLFMTAGTDGVIMWHDFRMDGEKSVVERRGYLDAHDHCVQRSLFNPFHDELLISCGSDHTLKLWDTSKKGADGECAVCVSKLSDFAESVVACCWSNSNPWVFAGLSYNGRVLVDSVPEECKMQFIGKEG”, the “soluble on expression in E. coli” value is “not soluble”.

As to “MSSSNENAGKHSYLRSLISGLSSQGICAYVYASSGYGESSTDIVFTGKAFIAEAGEIVEEMERFRYEERMIISDIDVSRIQTERLINSSFKAAVTFHTHDEKFNQLPFKLRSRQESLPMTRRVLEHHHHHH”, the “soluble on expression in E. coli” value is on record as “soluble”.

For “MGSDKIHHHHHHMTISYEKFHLKEVINASGKMTILGVSKVSEAVLAAQRFGGEHFFEMSELSVQTGAFLANLLKVEDAQIVSSASAGIAQSVAALIGKGSLYHAYHPYTEKIEQREIVLPKGHNVDYGTPVEVMVAQGGGQVVEAGYANMCSPEHVEMMISEKTAAILYIKSHHTVQKSMLTVAEAAKVAQRHKVPLIVDAAAEEDLFKYTEAGADLVIYSGAKAIEGPSAGLVVGKKEYIDWVRLQGKGIGRAMKIGKDNILGFTQAVEEYLAHGSESGASMQERLKPFVEAINNLSDLTAKIVQDGAGRDIYRASVKVDGRKTAKEVIQALKAESPAIYTREYQANNGIIEFDIRSVNQEEMNKIVQRLQEIMDKKEK”, the “soluble on expression in E. coli” value was “not soluble”. The same measure for “MPSNIRESDASCLEMIRSIIRSTADDNSKWVEIFVDFENAQPTDEEREIYNMAEEVLNDCDLVLADVSSYGNGCYAERNQLKNDSDTQALKVLMTKLEPFVARTCSYYEHVAKIEKIVPIILWELSSGPLPLEEQLANKQSIAKQFARLIGFVLDFDVVKMRTAQITNDYSYYRRAKHIVYQDFEDQGVPELPQVQMFLCEGNPMLKALCNGVDSYMQTHQSLPINNTTDVFVTIINVCRFMLANDECLARLTDSSKHLCCRVMTGLVILFDHVDQNGAFVSNSSIDMRDVVRLIKLNTTPEQSDCLLAGLRFTTKHYNDSSTPKSLRHLIEVK”: “soluble”; for “GAMVMRLGDAAELCYNLTSSYLQIAAESDSIIAQTQRAINTTKSILINETFPKWSPLNGEISFSYNGGKDCQVLLLLYLSCLWEYYIVKLSQSQFDGKFHRFPLTKLPTVFIDHDDTFKTLENFIEETSLRYSLSLYESDRDKCETMAEAFETFLQVFPETKAIVIGIRHTDPFGEHLKPIQKTDANWPDFYRLQPLLHWNLANIWSFLLYSNEPICELYRYGFTSLGNVEETLPNPHLRKDKNSTPLKLNFEWEIENRYKHNEVTKAEPIPIADEDLVKIENLHEDYYPGWYLVDDKLERAGRIKKK”: “soluble”.

Values taken from the DeepSol protein solubility set.
